Results on two substances are retold here after article PMC4338043.

Where two headings read alike, the source gives them in different places.

Holding throughout (test): AUC
Assay [1] addresses Bacillus anthracis inosine-5'-monophosphate dehydrogenase (Bacillus thuringiensis serovar monterrey BGSC 4AJ1 (sequence 100% identical to B. anthracis IMPDH)).
Assay [2] has the same target. The source holds these as a separate data set.
For assay [3], the target named is Klebsiella pneumoniae inosine-5'-monophosphate dehydrogenase (Klebsiella pneumoniae strain 52145).
The target is the same in assay [4]. This is another data set of the same source.

With “Bacillus anthracis inosine-5'-monophosphate dehydrogenase (from UniProt A0A0K0Q667 1-487) (enzyme)”, the stoichiometry N in assay [1] was 8; in assay [2] it was 4.
“Klebsiella pneumoniae inosine-5'-monophosphate dehydrogenase (enzyme)”: the stoichiometry N in assay [3] is 8; in assay [4], 4.

The term stoichiometry N denotes the number of molecules, sites or subunits per partner or assembly.
